Residue numbers refer to the chain shown, from its start. Names may count otherwise.
Experiments:
[1] = substrate: O=c1ccn([C@@H]2O[C@H](CO[P@@](=O)(O)O[P@@](=O)(O)O[C@H]3O[C@H](CO)[C@@H](O)[C@H](O)[C@H]3O)[C@@H](O)[C@H]2O)c(=O)[nH]1; test: orthophosphate release with calf intestinal alkaline phosphatase coupling; Michaelis-Menten fit of initial rates; type: biochemical, Streptococcus pneumoniae; details: 50 mM Tris pH 8.4, 5 mM MgCl2, 100 nM enzyme, 37°C for the relative activity assay
Description: (§1) orthophosphate release with calf intestinal alkaline phosphatase coupling; Michaelis-Menten fit of initial rates on UDP-X diphosphatase (UDP-Xase), SP_1669

[2] = substrate: CC(=O)N[C@H]1[C@@H](OP(=O)(O)OP(=O)(O)OC[C@H]2O[C@@H](n3ccc(=O)[nH]c3=O)[C@H](O)[C@@H]2O)O[C@H](CO)[C@@H](O)[C@@H]1O[C@H](C)C(=O)N[C@@H](C)C(=O)O; test: as above; type: biochemical, Streptococcus pneumoniae; details: 50 mM Tris pH 8.4, 5 mM MgCl2, 100 nM enzyme, 37°C for the relative activity assay
Description: as §1

[3] = substrate: CC(=O)N[C@H]1[C@@H](OP(=O)(O)OP(=O)(O)OC[C@H]2O[C@@H](n3ccc(=O)[nH]c3=O)[C@H](O)[C@@H]2O)O[C@H](CO)[C@@H](O)[C@@H]1O[C@H](C)C(=O)O; test: as above; type: biochemical, Streptococcus pneumoniae; details: 50 mM Tris pH 8.4, 5 mM MgCl2, 100 nM enzyme, 37°C for the relative activity assay
Description: as §1

[4] = target: the molecule itself; test: SEC; size-exclusion chromatography, data not shown
[5] = target: the molecule itself; test: SAXS; small-angle X-ray scattering of the mutants in solution, 4.5 and 6 mg/mL; ab initio envelopes fitted with the wild-type crystal dimer (PDB 4HFQ)

B1: UDP-X diphosphatase from Streptococcus pneumoniae TIGR4 (SP_1669 gene product), wild type (enzyme, UniProt A0A0H2URA0 1-203, looked up)
chain: MKTSDFVKYLQRMIAITDTGLTFTKDPFDRERYEDLRSLLSEMLNQASDLDSEEVAEVLKPTSAYATPLMDVRAWIVEDEKICLVRGQGEDSWALPGGFGEVGYSPTENILKEIEEETGFKAKVERLLAVFDTNRFQLQSKQYTKFVFGCKLLDGQFQENQEIADLQFFAIDQLPNLSEKRITKEQIELLWQVYQGHRGQYLD
notes: Nudix hydrolase UDP-X diphosphatase encoded by gene SP_1669 of Streptococcus pneumoniae TIGR4; the gene was amplified from genomic DNA with NdeI and BamHI sites at its start and end; the structure describes residues 1-203 (N-terminal domain 1-59, loop 60-68, C-terminal catalytic domain 69-203); No tag is named; also called UDP-Xase; source: E. coli BL21(DE3), pET-24a, purified (ammonium sulfate, …)
With B1 the Km [1] was 2900 ± 1100 µM, the Vmax [1] was 7 µM/min and the kcat [1] was 1.2 ± 0.1 s⁻¹. The kcat/Km [1] was 400 ± 200 M⁻¹ s⁻¹, the Km [2] was 1600 ± 300 µM and the Vmax [2] was 28.3 µM/min. For the same protein, the kcat [2] was 4.7 ± 0.2 s⁻¹, the kcat/Km [2] was 2900 ± 700 M⁻¹ s⁻¹ and the Km [3] was 3600 ± 400 µM. For the same protein, the Vmax [3] was 17.7 µM/min, the kcat [3] was 3 ± 0.1 s⁻¹ and the kcat/Km [3] was 800 ± 100 M⁻¹ s⁻¹. For the same protein, the “stoichiometry N” value [4] was 2.

B2: UDP-X diphosphatase E113A mutant (enzyme)
chain: B1 chain with E113A
notes: UDP-X diphosphatase encoded by gene SP_1669 of Streptococcus pneumoniae TIGR4, with E113A made by site-directed mutagenesis of the wild-type construct; Same construct as m1 apart from the mutation; also called UDP-Xase E113A; source: E. coli, expressed as the wild type, purified (ammonium sulfate, Phenyl FF, Source Q, Sephacryl S200)
With B2 the “stoichiometry N” value [5] was 2.

B3: UDP-X diphosphatase E162A mutant (enzyme)
chain: B1 chain with E162A
notes: UDP-X diphosphatase encoded by gene SP_1669 of Streptococcus pneumoniae TIGR4, with E162A made by site-directed mutagenesis of the wild-type construct; Same construct as m1 apart from the mutation; also called UDP-Xase E162A; source: E. coli, expressed as the wild type, purified (ammonium sulfate, Phenyl FF, Source Q, Sephacryl S200)
B3: binds [5].

Source: paper PMC3655063, “A UDP-X Diphosphatase from Streptococcus pneumoniae Hydrolyzes Precursors of Peptidoglycan Biosynthesis” (PLoS ONE, 2013)
